Data on two molecules can be found in patent US20240317826A1, “COMPOSITIONS AND METHODS FOR TREATING AND/OR I[…] AGENT FOR TREATING HIV-1 INFECTIONS” (priority 2021, published 2024).

One assay addresses T1, IN-CTD (Human immunodeficiency virus type 1 group M subtype B, UniProt P04585).
T1 construct: pGEX3x-IN and pGST-IN-CTD(aa 201-288) were used as templates; made in house; host or cells: bacteria (E. coli)
In words: Alpha proximity assay, binding of His6-SUMO-INI1183-304 to GST-CTD. Details: species or system HIV-1. The method, then:
FIG. 16A-FIG. 16H show quantitative Alpha protein-protein interaction assay to determine the interaction of IN, CTD, and the mutants with INI1 and INI1183-304. […] A titration curve was generated with increasing concentrations of His6-SUMO-INI1183-304 with two different fixed concentration of GST-CTD and the interactions were detected as Alpha Score. The KD values were determined by nonlinear regression analysis using specific binding with Hill slope analysis in GraphPad Prism. Data from one representative experiment is depicted. FIG. 16B and FIG. 16C show effect of salt on the interactions of GST-CTD either with His6-SUMO-INI1183-304 or biotinylated(Bio)-TAR RNA (n=3 independent experiments). The interaction was tested using fixed concentrations of GST-CTD (0.75 μM) and increasing concentrations of His6-SUMO-INI1183-304 (or Bio-TAR RNA) in two different NaCl conditions (100 and 500 mM). […] The IC50 values were determined by fitting the data to a four-parameter dose-response curve using GraphPad prism. […]
AlphaScreen proximity assay to detect the protein-protein and protein-RNA interactions. […] The Alpha score readings were measured using Alpha-compatible Envision 2105 multi-plate reader (Perkin-Elmer). All the experiments related to this method were carried out 3 to 5 times and data were analyzed by using Graph Pad Prism 9 version 9.0.0 (GraphPad Software, CA). […]

Assay [1] concerns HIV-1 particle production. Conditions: by binding to IN within GagPol; cited from earlier work.

B1: INI1183-304: INI1 fragment aa 183-304 (Rpt1, linker, part of Rpt2), expressed as His6-SUMO fusion (protein)
chain: PEVLVPIRLDMEIDGQKLRDAFTWNMNEKLMTPEMFSEILCDDLDLNPLTFVPAIASAIRQQIESYPTDSILEDQSDQRVIIKLNIHVGNISLVDQFEWDMSEKENSPEKFALKLCSELGLG
modifications: left off: large carriers
notes: INI1 fragment aa 183-304 (Rpt1, linker, part of Rpt2), expressed as His6-SUMO fusion
With B1, the “KD for binding, IN-CTD/INI1183-304” value in the assay with IN-CTD is reported as “low nM”.

B2: S6: INI1 fragment (aa 183-294) harboring the Rpt1 domain, linker region and a part of Rpt2 (protein, UniProt Q12824 183-294, looked up, fragment)
chain: PEVLVPIRLDMEIDGQKLRDAFTWNMNEKLMTPEMFSEILCDDLDLNPLTFVPAIASAIRQQIESYPTDSILEDQSDQRVIIKLNIHVGNISLVDQFEWDMSEKENSPEKFA
Take B2: in assay [1], the “inhibition of HIV-1 particle production” value is given as “trans-dominantly inhibits HIV-1 particle production”.
